# Bridge positions count the residues as written; N and C are the ends. Square brackets hold non-standard residues; d marks the D form. Trp(1-Me) = Cn1cc(C[C@H](N)C(=O)O)c2ccccc21; NMeI = CC[C@H](C)[C@H](NC)C(=O)O; Nle = CCCC[C@H](N)C(=O)O; Sar = CNCC(=O)O
# How the values were obtained:
# biotinylated C3b [1] = target: biotinylated C3b (UniProt P01024); assay: SPR on immobilised C3b; ratio relative to peptide 14
# [2] = target: T1, C3 purified from fresh human plasma (human, UniProt P01024 23-1663); assay: cell-based or functional assay
# biotinylated C3b [3] = target: biotinylated C3b (UniProt P01024); assay: SPR, Biacore 3000; biotinylated C3b on streptavidin chip, peptide injected; 1:1 fit
# [4] = target: T1, C3 purified from fresh human plasma; assay: cell-based or functional assay; remark: listed apart in the source
# [5] = target: T1, C3 purified from fresh human plasma; assay: cell-based or functional assay; remark: listed apart in the source
# [6] = target: T1, C3 purified from fresh human plasma; assay: ITC with C3; relative to peptide 14
# Experimental: (§1) ITC analysis. All ITC experiments were performed with the Microcal VP-ITC calorimeter (Microcal Inc., Northampton, Mass.), using protein concentrations of 1.8-5 μM C3 in the cell and peptide concentrations of 40-100 μM of individual compstatin analogs in the syringe. All titrations were performed in PBS (10 mM phosphate buffer with 150 mM NaCl, pH 7.4) at 25° C. using multiple peptide injections of 2-7 μL each. The raw isotherms were corrected for the heats of dilution by subtracting the isotherms representing peptide injections into the buffer. The resulting isotherms were fitted to a single site of sites models using Origin 7.0 software, and the model that produced the lowest χ² value was deemed to be appropriate for the respective data set. The Gibbs free energy was calculated as ΔG=ΔH−TΔS. Each experiment was repeated at least twice.
# (§2) Characterization of binding thermodynamics.
# [7] = target: T1, C3 purified from fresh human plasma; assay: ITC; peptide titrated into C3, PBS, 25 C
# Experimental: as §1, §2
# [8] = target: T1, C3 purified from fresh human plasma; assay: cell-based or functional assay; remark: listed apart in the source
# T1 sequence (P01024 23-1663): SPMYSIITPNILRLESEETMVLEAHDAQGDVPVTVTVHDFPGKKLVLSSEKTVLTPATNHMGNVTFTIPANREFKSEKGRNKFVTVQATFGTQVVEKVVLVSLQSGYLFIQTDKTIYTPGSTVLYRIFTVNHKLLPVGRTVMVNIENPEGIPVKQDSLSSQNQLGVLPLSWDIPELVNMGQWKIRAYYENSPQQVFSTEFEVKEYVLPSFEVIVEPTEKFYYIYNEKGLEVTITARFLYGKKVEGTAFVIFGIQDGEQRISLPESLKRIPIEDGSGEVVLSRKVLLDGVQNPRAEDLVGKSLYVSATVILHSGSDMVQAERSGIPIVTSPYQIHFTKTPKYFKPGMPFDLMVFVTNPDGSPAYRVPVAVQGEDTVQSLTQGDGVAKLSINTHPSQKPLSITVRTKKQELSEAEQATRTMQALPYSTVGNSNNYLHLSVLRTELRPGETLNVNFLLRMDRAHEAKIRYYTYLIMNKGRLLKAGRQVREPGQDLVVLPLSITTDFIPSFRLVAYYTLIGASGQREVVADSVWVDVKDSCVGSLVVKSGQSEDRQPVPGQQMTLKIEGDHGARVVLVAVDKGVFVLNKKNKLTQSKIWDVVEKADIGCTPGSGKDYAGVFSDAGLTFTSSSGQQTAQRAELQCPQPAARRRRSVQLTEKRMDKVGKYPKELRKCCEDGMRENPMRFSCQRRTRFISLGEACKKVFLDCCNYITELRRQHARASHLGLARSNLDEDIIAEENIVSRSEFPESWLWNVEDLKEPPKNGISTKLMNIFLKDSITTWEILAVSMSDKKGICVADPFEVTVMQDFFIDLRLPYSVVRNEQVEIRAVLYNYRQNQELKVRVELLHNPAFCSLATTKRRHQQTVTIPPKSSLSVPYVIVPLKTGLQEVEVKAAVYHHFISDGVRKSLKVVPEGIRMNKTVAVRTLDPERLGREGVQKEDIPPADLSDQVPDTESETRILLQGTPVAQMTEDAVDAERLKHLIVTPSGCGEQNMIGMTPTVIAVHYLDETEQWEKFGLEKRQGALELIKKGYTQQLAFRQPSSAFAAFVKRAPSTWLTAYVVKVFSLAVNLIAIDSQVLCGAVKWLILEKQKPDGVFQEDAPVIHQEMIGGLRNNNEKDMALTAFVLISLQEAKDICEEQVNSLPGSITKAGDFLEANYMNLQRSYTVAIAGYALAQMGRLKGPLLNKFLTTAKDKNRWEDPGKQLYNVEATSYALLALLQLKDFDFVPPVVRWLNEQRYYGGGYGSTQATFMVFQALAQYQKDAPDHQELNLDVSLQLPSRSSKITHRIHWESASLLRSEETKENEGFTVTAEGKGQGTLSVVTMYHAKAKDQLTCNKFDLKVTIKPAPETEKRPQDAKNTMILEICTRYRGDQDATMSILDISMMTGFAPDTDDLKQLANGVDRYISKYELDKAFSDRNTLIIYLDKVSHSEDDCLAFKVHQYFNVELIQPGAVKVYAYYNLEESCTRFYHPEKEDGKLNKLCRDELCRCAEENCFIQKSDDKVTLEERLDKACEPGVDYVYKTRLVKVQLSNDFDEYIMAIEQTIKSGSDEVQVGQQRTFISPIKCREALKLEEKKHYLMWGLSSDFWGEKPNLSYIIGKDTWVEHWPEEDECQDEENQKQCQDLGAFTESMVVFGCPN
binder,measurement,setting,value
Ac-ICV[Trp(1-Me)]QDW[Sar]AHRCL-NH2 (disulfide 2-12; SMILES CC[C@H](C)[C@H](NC(C)=O)C(=O)N[C@H]1CSSC[C@@H](C(=O)N[C@@H](CC(C)C)C(N)=O)NC(=O)[C@H](CCCNC(=N)N)NC(=O)[C@H](Cc2c[nH]cn2)NC(=O)[C@H](C)NC(=O)CN(C)C(=O)[C@H](Cc2c[nH]c3ccccc23)NC(=O)[C@H](CC(=O)O)NC(=O)[C@H](CCC(N)=O)NC(=O)[C@H](Cc2cn(C)c3ccccc23)NC(=O)[C@H](C(C)C)NC1=O) [Ac-Ic[CV(1-MeW)QDW(N-MeG)AHRC]L-NH2],rKD SPR,biotinylated C3b [1],2.6 fold
same,rka,biotinylated C3b [1],1.3 fold
same,rkd,biotinylated C3b [1],1.9 fold
same,Fold change in activity (IC50) relative to SEQ ID NO:4,[2],1.91 fold
same,Kd,biotinylated C3b [3],4.6 nM
same,koff,biotinylated C3b [3],0.006 s⁻¹
same,kon,biotinylated C3b [3],1.3e+06 M⁻¹ s⁻¹
same,"IC50, inhibition of classical pathway complement activation, ELISA",[4],108 nM
same,"rP, relative potency compared to peptide 14",[5],1.9 fold
"Ac-ICV[Trp(1-Me)]QDW[Sar]AHRC[NMeI]-NH2 (disulfide 2-12; SMILES CC[C@H](C)[C@H](NC(C)=O)C(=O)N[C@H]1CSSC[C@@H](C(=O)N(C)[C@H](C(N)=O)[C@@H](C)CC)NC(=O)[C@H](CCCNC(=N)N)NC(=O)[C@H](Cc2c[nH]cn2)NC(=O)[C@H](C)NC(=O)CN(C)C(=O)[C@H](Cc2c[nH]c3ccccc23)NC(=O)[C@H](CC(=O)O)NC(=O)[C@H](CCC(N)=O)NC(=O)[C@H](Cc2cn(C)c3ccccc23)NC(=O)[C@H](C(C)C)NC1=O, Sar^8, (NMe)Ile^13; also called peptide 21; analog 21) [Ac-Ic[CV(1-MeW)QDW(N-MeG)AHRC](N-MeI)-NH2]",rKD SPR,biotinylated C3b [1],5.2 fold
same,rka,biotinylated C3b [1],1.5 fold
same,rkd,biotinylated C3b [1],3.2 fold
same,-TΔΔS,[6],-1.3 kcal/mol
same,rKD ITC,[6],3.3 fold
same,ΔΔG,[6],-0.7 kcal/mol
same,ΔΔH,[6],0.5 kcal/mol
same,Fold change in activity (IC50) relative to SEQ ID NO:4,[2],3.32 fold
same,-TΔS,[7],5.7 kcal/mol
same,ΔG,[7],-11.4 kcal/mol
same,ΔH,[7],-17.1 kcal/mol
same,Kd,biotinylated C3b [3],2.3 nM
same,koff,biotinylated C3b [3],0.0035 s⁻¹
same,kon,biotinylated C3b [3],1.5e+06 M⁻¹ s⁻¹
same,"IC50, inhibition of classical pathway complement activation, ELISA",[4],62 nM
same,"rP, relative potency compared to peptide 14",[5],3.3 fold
"Ac-ICV[Trp(1-Me)]QDW[Sar]AHRCI-NH2 (disulfide 2-12; SMILES CC[C@H](C)[C@H](NC(=O)[C@@H]1CSSC[C@H](NC(=O)[C@@H](NC(C)=O)[C@@H](C)CC)C(=O)N[C@@H](C(C)C)C(=O)N[C@@H](Cc2cn(C)c3ccccc23)C(=O)N[C@@H](CCC(N)=O)C(=O)N[C@@H](CC(=O)O)C(=O)N[C@@H](Cc2c[nH]c3ccccc23)C(=O)N(C)CC(=O)N[C@@H](C)C(=O)N[C@@H](Cc2c[nH]cn2)C(=O)N[C@@H](CCCNC(=N)N)C(=O)N1)C(N)=O, Sar^8, Ile^13; also called peptide 17; Ac-Ic[CV(1-MeW)QDW(N-MeG)AHRC]I-NH2) [Ac-Ile-c[Cys-Val-Trp(Me)-Gln-Asp-Trp-Sar-Ala-His-Arg-Cys]-Ile-NH2]",rKD SPR,biotinylated C3b [1],2.7 fold
same,rka,biotinylated C3b [1],1.5 fold
same,rkd,biotinylated C3b [1],1.7 fold
same,-TΔΔS,[6],-4.1 kcal/mol
same,rKD ITC,[6],2.4 fold
same,ΔΔG,[6],-0.5 kcal/mol
same,ΔΔH,[6],3.5 kcal/mol
same,Fold change in activity (IC50) relative to SEQ ID NO:4,[2],2.24 fold
same,-TΔS,[7],2.9 kcal/mol
same,ΔG,[7],-11.2 kcal/mol
same,ΔH,[7],-14.1 kcal/mol
same,"IC50 (nM, CP), inhibition of classical pathway complement activation, ELISA, human serum",[8],92 nM
same,IC50 fold change relative to peptide 17,[8],1 fold
same,Kd,biotinylated C3b [3],4.4 nM
same,koff,biotinylated C3b [3],0.0066 s⁻¹
same,kon,biotinylated C3b [3],1.5e+06 M⁻¹ s⁻¹
same,"IC50, inhibition of classical pathway complement activation, ELISA",[4],92 nM
same,"rP, relative potency compared to peptide 14",[5],2.2 fold
Ac-ICV[Trp(1-Me)]QDW[Sar]AHRC[Nle]-NH2 (disulfide 2-12; SMILES CCCC[C@H](NC(=O)[C@@H]1CSSC[C@H](NC(=O)[C@@H](NC(C)=O)[C@@H](C)CC)C(=O)N[C@@H](C(C)C)C(=O)N[C@@H](Cc2cn(C)c3ccccc23)C(=O)N[C@@H](CCC(N)=O)C(=O)N[C@@H](CC(=O)O)C(=O)N[C@@H](Cc2c[nH]c3ccccc23)C(=O)N(C)CC(=O)N[C@@H](C)C(=O)N[C@@H](Cc2c[nH]cn2)C(=O)N[C@@H](CCCNC(=N)N)C(=O)N1)C(N)=O) [Ac-Ic[CV(1-MeW)QDW(N-MeG)AHRC](Nle)-NH2],rKD SPR,biotinylated C3b [1],2.7 fold
same,rka,biotinylated C3b [1],1.5 fold
same,rkd,biotinylated C3b [1],1.7 fold
same,Fold change in activity (IC50) relative to SEQ ID NO:4,[2],1.9 fold
same,Kd,biotinylated C3b [3],4.4 nM
same,koff,biotinylated C3b [3],0.0066 s⁻¹
same,kon,biotinylated C3b [3],1.5e+06 M⁻¹ s⁻¹
same,"IC50, inhibition of classical pathway complement activation, ELISA",[4],109 nM
same,"rP, relative potency compared to peptide 14",[5],1.9 fold

# Reference: US20120178694A1 (University of Pennsylvania, published 2012)
